Experimental data: patent publication US20250154278A1 (JANUX THERAPEUTICS, published 2025)
Numbering of substitutions follows the chain as printed. Numbers in names are those of the source.

T1: Human TROP2 full length, on tumor cells (HCT116, MDAMB231, NCI-H292) (human, UniProt P09758 31-323)
T1 sequence: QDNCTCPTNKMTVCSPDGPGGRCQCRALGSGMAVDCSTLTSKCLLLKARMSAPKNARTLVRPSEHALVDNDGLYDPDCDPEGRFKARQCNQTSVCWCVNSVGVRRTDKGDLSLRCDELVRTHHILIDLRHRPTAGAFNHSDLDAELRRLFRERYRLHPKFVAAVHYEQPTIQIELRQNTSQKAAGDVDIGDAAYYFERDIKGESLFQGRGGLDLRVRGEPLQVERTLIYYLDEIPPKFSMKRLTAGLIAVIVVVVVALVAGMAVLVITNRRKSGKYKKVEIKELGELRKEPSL

T2: Cynomolgus monkey TROP2 full length, on recombinant HEK293 cells (cynomolgus monkey, UniProt P09758 31-323 (human entry))
T2 chain: T1 sequence with M32V, S63N, I200V, M262V, T268S

T3: Cyno CD3 (Antigen was biotinylated for capture on neutravidin plates; the site of biotin and any tag are not stated.)
T3 construct: also called cynomolgus monkey CD3
T3 chain: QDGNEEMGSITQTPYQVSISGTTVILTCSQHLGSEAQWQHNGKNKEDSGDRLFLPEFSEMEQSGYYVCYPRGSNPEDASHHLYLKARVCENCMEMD

T4: Human TROP2 ECD (31-274 AA), biotinylated (human, UniProt P09758 31-274, biotinylated (site not stated))
T4 construct: the entry is already residues 31-274; also called Human TROP2-biotin; hTROP2-Biotin
T4 sequence: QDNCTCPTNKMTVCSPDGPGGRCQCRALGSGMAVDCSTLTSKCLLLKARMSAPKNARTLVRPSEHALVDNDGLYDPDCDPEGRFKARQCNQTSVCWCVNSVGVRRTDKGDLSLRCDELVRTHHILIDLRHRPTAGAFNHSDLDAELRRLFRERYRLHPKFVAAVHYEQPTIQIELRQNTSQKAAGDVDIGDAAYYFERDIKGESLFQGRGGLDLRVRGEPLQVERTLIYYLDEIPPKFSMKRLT

B1: TCE-2 (TROP2 Fab x SP34.185 scFv, non-mutated, scFv on the Fab LC) (bispecific antibody)
light: not shown
heavy: QVQLQQSGSELKKPGASVKVSCKASGYTFTNYGMNWVKQAPGQGLKWMGWINTYTGEPTYTDDFKGRFAFSLDTSVSTAYLQISSLKADDTAVYFCARGGFGSSYWYFDVWGQGSLVTVSSASTKGPSVFPLAPSSKSTSGGTAALGCLVKDYFPEPVTVSWNSGALTSGVHTFPAVLQSSGLYSLSSVVTVPSSSLGTQTYICNVNHKPSNTKVDKKVEPKSC
B2: TCE-5 (TROP2 Fab HC D109A TCE, scFv on the Fab LC) (bispecific antibody)
light: not shown
heavy: B1 heavy with D109A
B3: TCE-3 (TROP2 Fab HC R98A TCE, scFv on the Fab LC) (bispecific antibody)
light: not shown
heavy: B1 heavy with R98A
B4: TCE-1 (TROP2 Fab x SP34.185 scFv, non-mutated, scFv on the Fab HC) (bispecific antibody)
light: DIQLTQSPSSLSASVGDRVSITCKASQDVSIAVAWYQQKPGKAPKLLIYSASYRYTGVPDRFSGSGSGTDFTLTISSLQPEDFAVYYCQQHYITPLTFGAGTKVEIKRTVAAPSVFIFPPSDEQLKSGTASVVCLLNNFYPREAKVQWKVDNALQSGNSQESVTEQDSKDSTYSLSSTLTLSKADYEKHKVYACEVTHQGLSSPVTKSFNRGEC
heavy: not shown
B5: TCE-8 (TROP2 Fab HC D109A TCE, scFv on the Fab HC) (bispecific antibody)
light: B4 light
heavy: not shown
B6: TCE-6 (TROP2 Fab HC R98A TCE, scFv on the Fab HC) (bispecific antibody)
light: B4 light
heavy: not shown
B7: TCE-32 (anti-CD3 scFv W238A, anti-TROP2 wt) (bispecific antibody)
light: B4 light
heavy: not shown
B8: TCE-27 (anti-CD3 scFv W233A, anti-TROP2 wt) (bispecific antibody)
light: B4 light
heavy: not shown
B9: TCE-35 (anti-CD3 scFv with P41S, A49G, N87S, L150F, T151S, G163R, P175A, K181T, T200V, A202D, L208I, G211N, L217I, S218T, V220A, P222A, E223D, A226S, E227D; … (bispecific antibody)
light: B4 light
heavy: EVQLVESGGGLVQPGGSLKLSCAASGFTFNKYAMNWVRQASGKGLEWVGRIRSKYNNYATYYADSVKDRFTISRDDSKNTAYLQMNSLKTEDTAVYYCVRHGNFGNSYISYWAYWGQGTLVTVSSGGGGSGGGGSGGGGSQTVVTQEPSFSVSPGGTVTLTCRSSTGAVTSGNYANWVQQTPGQAPRGLIGGTKFLAPGVPDRFSGSILGNKAALTITGAQADDESDYYCVLWYSNRWVFGGGTKLTVLGGGGSQVQLQQSGSELKKPGASVKVSCKASGYTFTNYGMNWVKQAPGQGLKWMGWINTYTGEPTYTDDFKGRFAFSLDTSVSTAYLQISSLKADDTAVYFCARGGFGSSYWYFDVWGQGSLVTVSSASTKGPSVFPLAPSSKSTSGGTAALGCLVKDYFPEPVTVSWNSGALTSGVHTFPAVLQSSGLYSLSSVVTVPSSSLGTQTYICNVNHKPSNTKVDKKVEPKSC
B10: TCE-36 (anti-CD3 scFv with N30Q, I109V, G172A, V231A; anti-TROP2 wt) (bispecific antibody)
light: B4 light
heavy: not shown
B11: TCE-43 (anti-CD3 scFv wt, anti-TROP2 HC D109A) (bispecific antibody)
light: B4 light
heavy: not shown
B12: TCE-42 (anti-CD3 scFv with N30Q, I109V, G172A, V231A; anti-TROP2 HC F108A) (bispecific antibody)
light: B4 light
heavy: not shown
B13: TCE-25 (anti-CD3 scFv V231A, anti-TROP2 wt) (bispecific antibody)
light: B4 light
heavy: not shown
B14: TCE-26 (anti-CD3 scFv L232A, anti-TROP2 wt) (bispecific antibody)
light: B4 light
heavy: not shown
B15: TCE-31 (anti-CD3 scFv R237A, anti-TROP2 wt) (bispecific antibody)
light: B4 light
heavy: not shown
B16: TCE-29 (anti-CD3 scFv S235A, anti-TROP2 wt) (bispecific antibody)
light: B4 light
heavy: not shown
B17: TCE-33 (anti-CD3 scFv V239A, anti-TROP2 wt) (bispecific antibody)
light: B4 light
heavy: not shown
B18: TCE-28 (anti-CD3 scFv Y234A, anti-TROP2 wt) (bispecific antibody)
light: B4 light
heavy: not shown
B19: TCE-30 (anti-CD3 scFv N236A, anti-TROP2 wt) (bispecific antibody)
light: B4 light
heavy: not shown
B20: TCE-22 (anti-CD3 scFv Y111A, anti-TROP2 wt) (bispecific antibody)
light: B4 light
heavy: not shown
B21: TCE-38 (anti-CD3 scFv H101A, anti-TROP2 HC F108A) (bispecific antibody)
light: B4 light
heavy: not shown

target: T1, Human TROP2 full length, on tumor cells …; assay: cell-based or functional assay

Binder | TCE Cytotoxicity EC50, HCT116 + CD8+ T cells | TCE Cytotoxicity EC50, MDAMB231 + CD8+ T cells | TCE Cytotoxicity EC50, H292 + CD8+ T cells
B1 | 1.6 pM | 1.2 pM | –
B2 | 5.8 pM | 2.6 pM | 0.2 pM
B3 | 22 pM | 7.7 pM | 0.4 pM
B4 | 28.6 pM | 12 pM | 1.3 pM
B5 | 83 pM | 26 pM | 4 pM
B6 | 142 pM | 77.2 pM | 6.3 pM

target: T1, Human TROP2 full length, on tumor cells …; assay: cell-based or functional assay; remark: another data set of the same source

Binder | H292 Cytotox EC50
B7 | > 1000 pM
B8 | > 1000 pM

target: T1, Human TROP2 full length, on tumor cells …; assay: cell-based or functional assay; remark: another data set of the same source

Binder | H292 Cytotox EC50
B9 | 0.5 pM
B10 | 2.1 pM

target: T1, Human TROP2 full length, on tumor cells …; assay: cell-based or functional assay; remark: another data set of the same source

Binder | H292 Cytotox EC50
B11 | 1 pM

Target: T2, Cynomolgus monkey TROP2 full length, on …
Assay: cell-based or functional assay

Binder | CynoTROP2 + HEK293 cells Cytotox EC50
B11 | 0.1 pM

Target: T3, Cyno CD3
Assay: Cyno CD3 binding ELISA

Binder | EC50
B12 | 354 pM

target: T5, human CD3 epsilon, biotinylated (human, UniProt P07766 23-126, limits assumed, biotinylated (site not stated)); assay: BLI, CD3e-biotin on sensor (summary)
T5 construct: Printed in places as CD36, CD38, CD3c or CD3&; also called CD3e-bio; human CD3e-biotin
T5 sequence (P07766 23-126 limits assumed): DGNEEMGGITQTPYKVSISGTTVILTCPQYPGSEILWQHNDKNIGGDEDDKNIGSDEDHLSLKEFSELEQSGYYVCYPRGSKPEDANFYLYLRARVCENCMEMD

Binder | CD3 t1/2 | Kd | CD3 Octet response
B13 | 2.96 min | 6260 pM | –
B7 | – | 31000 pM | 0.07
B14 | 2.64 min | 8390 pM | 0.66
B15 | 2.67 min | 6510 pM | 0.73
B8 | 6.45 min | 12300 pM | –
B16 | 3.64 min | 3410 pM | 0.68
B17 | 4.26 min | – | 0.74
B18 | 1.66 min | 11100 pM | 0.67
B19 | 2.45 min | – | 0.65

target: T5, human CD3 epsilon, biotinylated; assay: BLI, CD3e-biotin on sensor, 50 nM TCE

Binder | Kd | Response
B13 | 6260 pM | –
B7 | 31000 pM | 0.0683
B14 | 8390 pM | 0.663
B20 | – | -0.0009
B10 | 9110 pM | 0.931
B15 | 6510 pM | 0.728
B8 | 12300 pM | 0.414
B16 | 3410 pM | 0.682
B17 | – | 0.742
B18 | 11100 pM | 0.674
B19 | – | 0.65

target: T4, Human TROP2 ECD (31-274 AA), …; assay: TROP2 binding ELISA, biotinylated TROP2 on neutravidin plates

Binder | EC50
B21 | 1280 pM
B11 | 1070 pM
